“And” between values parts separate entries of the source, which are not always exact repeats. Identical values can stand only once. “Also recorded” adds a separate entry of the source. No end group written: not given here.
Assays:
hAPLNR [1] = molecular target: T1, hAPLNR (Homo sapiens, UniProt P35414); test: CRE assay of modified apelin peptides in HEK293/CRE-luc/hAPLNR cells; assay type: cell-based; conditions: Table 9; 5 μM forskolin
T1 construct: expressed in transfected cells
T1 sequence (P35414 1-380): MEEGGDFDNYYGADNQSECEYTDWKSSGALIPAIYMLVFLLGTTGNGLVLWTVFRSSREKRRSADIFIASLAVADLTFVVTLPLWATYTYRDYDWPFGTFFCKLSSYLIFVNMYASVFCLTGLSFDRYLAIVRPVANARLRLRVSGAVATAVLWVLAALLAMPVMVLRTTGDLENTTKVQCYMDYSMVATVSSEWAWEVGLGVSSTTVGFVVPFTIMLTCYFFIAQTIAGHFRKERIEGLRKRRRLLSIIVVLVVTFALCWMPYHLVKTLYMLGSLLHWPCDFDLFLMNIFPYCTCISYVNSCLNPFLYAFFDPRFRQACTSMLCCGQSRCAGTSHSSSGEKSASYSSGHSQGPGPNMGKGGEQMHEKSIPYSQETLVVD
Description: After 5 hours of incubation at 37° C. in 5% CO2, luminescence was measured following the addition of One Glo reagent (Promega, #E6051) using a Victor X instrument (Perkin Elmer). The data were fit by nonlinear regression to a 4-parameter logistic equation with Prism 5 software (GraphPad).

HEK293 parental cells = test: FACS binding to HEK293 parental cells; conditions: 10 μg/mL antibody
Description: Binding ratios for human APLNR binding to purified anti-APLNR monoclonal antibodies were determined by a fluorescence-activated cell sorting (FACS) binding assay. […] The resulting stable cell lines, HEK293/CRE-luc/hAPLNR and HEK293/CRE-luc/MfAPLNR, were maintained in DMEM containing 10% FBS, NEAA, and penicillin/streptomycin with either 100 μg/mL Hygromycin B for hAPLNR cells or 500 μg/mL G418 for MfAPLNR cells.
For the FACS analysis, HEK293 parental, HEK293/CRE-luc/hAPLNR, and, HEK293/CRE-luc/mfAPLNR cells were dissociated using Enzyme Free Dissociation reagent (#S-004, Millipore, Billerica, Mass., USA) and 10^6 cells/well were plated onto 96-well v-bottom plates in PBS containing 1% FBS. […] Cells were then filtered and analyzed on Accuri Flow Cytometer (BD Biosciences, San Jose, Calif., USA). Unstained and secondary antibody alone controls were also tested for binding to all cell lines. […] Geometric mean (Geom. mean) of fluorescence for each antibody was then normalized to geometric mean of unstained cells to obtain relative binding of antibody (binding ratios) per each cell type: HEK293 (parental), HEK293/CRE-luc/hAPLNR and HEK293/CRE-luc/MfAPLNR.

hAPLNR [2] = molecular target: T1, hAPLNR; test: cyclic AMP (CRE-luciferase) assay, activation of hAPLNR in HEK293/CRE-luc/hAPLNR cells; assay type: cell-based; conditions: % of maximum Apelin activation, without Apelin
Description: The ability of anti-APLNR antibodies to activate hAPLNR-mediated cell signaling was measured using a cyclic AMP assay. The hAPLNR is a 7-transmembrane G-protein coupled receptor (GPCR).
The resulting cell line, HEK293/CRE-luc/hAPLNR, was maintained in DMEM containing 10% FBS, NEAA, penicillin/streptomycin, and 100 μg/mL Hygromycin B.
Testing of antibodies included a no antibody control.
The results of all assays were analyzed using nonlinear regression (4-parameter logistics) within Prism 5 software (GraphPad).

[3] = molecular target: T2, human APLNR (humanized APLNR mice) (Homo sapiens, UniProt P35414); test: retinal vascular development (RVD) model in humanized APLNR mouse pups; assay type: in vivo
T2 construct: homozygous for expression of human APLNR in place of mouse APLNR (humanized APLNR mice); from tissue; host or cells: living humanized APLNR mouse pups (75% C57BL6 / 25% Sv129); read-out in the retina
T2 sequence (P35414 1-380): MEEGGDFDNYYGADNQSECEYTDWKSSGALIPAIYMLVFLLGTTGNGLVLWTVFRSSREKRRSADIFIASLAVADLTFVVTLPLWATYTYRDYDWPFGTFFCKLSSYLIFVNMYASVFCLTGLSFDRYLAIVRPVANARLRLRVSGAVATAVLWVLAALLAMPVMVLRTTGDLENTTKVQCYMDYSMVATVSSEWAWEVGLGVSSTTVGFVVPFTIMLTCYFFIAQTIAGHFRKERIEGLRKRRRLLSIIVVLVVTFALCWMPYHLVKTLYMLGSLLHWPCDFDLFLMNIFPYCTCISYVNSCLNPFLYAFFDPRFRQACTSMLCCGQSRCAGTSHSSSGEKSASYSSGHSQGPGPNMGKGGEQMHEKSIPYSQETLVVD
Description: To assess the in vivo characteristics of select anti-APLNR antibodies of the invention, their ability to block APLNR-mediated angiogenesis in the eye vasculature was measured.
A retinal vascular development (RVD) model was used to evaluate the effects of an antagonistic anti-APLNR antibody on blood vessel outgrowth in the normal developing retina of mouse pups that were of a mixed background strain (75% C57BL6 and 25% Sv129) and homozygous for expression of human APLNR in place of mouse APLNR (humanized APLNR mice). Pups were subcutaneously injected on postnatal day 2 (P2) with either 50 mg/kg of an anti-APLNR antagonist antibody, H2aM9232N, or an irrelevant human Fc (hFc) control. Reagents were masked and labeled as Solution A and Solution B to prevent experimenter bias. At postnatal day 5, tissue samples were collected and then fixed in PBS containing 4% paraformaldehyde. Fixed tissue samples were washed with PBS three times for 15 minutes, and subsequently stained with GS Lectin I (Vector Laboratories, #FL-1101) diluted 1:200 in 1×PBS containing 1% BSA in 0.25% Triton-X 100 overnight at 25° C. to visualize retinal vasculature. The following day, stained samples were rinsed with PBS three times for 15 minutes each, flat-mounted onto slides, and coverslips were subsequently mounted using Prolong Gold (Invitrogen, #P36930). Images were taken at 20 times magnification using an epi-fluorescent microscope (Nikon Eclipse 80). The vascularized areas in the retina were measured from acquired images from this assay using Adobe Photoshop CS6 extended. Statistical differences between the results obtained from the IgG control antibody and H2aM9232N treated samples were assessed using a two tailed, unpaired Student T-test (**, p<0.001). Only after retinal vasculature area measurements and statistical analysis were completed, the sample identities were unmasked.

Work on `CSCC[C@H](NC(=O)[C@@H]1CCCN1C(=O)CNC(=O)[C@H](CCCCN)NC(=O)[C@H](Cc1c[nH]cn1)NC(=O)[C@H](CO)NC(=O)[C@H](CC(C)C)NC(=O)[C@H](CCCNC(=N)N)NC(=O)[C@@H]1CCCN1C(=O)[C@@H](N)CCCNC(=N)N)C(=O)N1CCC[C@H]1C(=O)O` [Apelin66-76] yielded an EC50 (hAPLNR [1]) of 5.19 pM.

Work on `CSCC[C@H](NC(=O)[C@@H]1CCCN1C(=O)CNC(=O)[C@H](CCCCN)NC(=O)[C@H](Cc1c[nH]cn1)NC(=O)[C@H](CO)NC(=O)[C@H](CC(C)C)NC(=O)[C@H](CCCNC(=N)N)NC(=O)[C@@H]1CCCN1)C(=O)N1CCC[C@H]1C(=O)N[C@@H](Cc1ccccc1)C(=O)O` [Apelin-11, reference compound] yielded an EC50 (hAPLNR [1]) of 438 pM.

In the case of `CSCC[C@H](NC(=O)[C@@H]1CCCN1C(=O)CNC(=O)[C@H](CCCCN)NC(=O)[C@H](Cc1c[nH]cn1)NC(=O)[C@H](CO)NC(=O)[C@H](CC(C)C)NC(=O)[C@H](CCCNC(=N)N)NC(=O)[C@@H]1CCCN1C(=O)[C@H](CCCNC(=N)N)NC(=O)[C@@H](N)CCC(N)=O)C(=O)N1CCC[C@H]1C(=O)N[C@@H](Cc1ccccc1)C(=O)NCC(=O)NCC(=O)NCC(=O)NCC(=O)NCC(=O)O` [Apelin-13 + 5G], the EC50 (hAPLNR [1]) is reported as 147 pM.

In the case of PRLSHKGPM [Apelin67-75], the EC50 (hAPLNR [1]) is reported as 374000 pM.

RPRLSHKGPM [Apelin66-75] showed an EC50 (hAPLNR [1]) of 2.17 pM.

B1: H2aM9232N: antagonistic anti-APLNR antibody, HCVR/LCVR SEQ ID NOs 98/106, mouse IgG2a Fc (antibody, V domains shown)
VH: QVKLVESGGGVVQPGRSLRLSCAASGFTFSNYVIHWVRQAPGKGLEWVAVIWYDGSNKYYADSVKGRFTISRDNSKNTLYLQMNSLRAEDTAVYYCARDRVVRGVDYYYYYGLDVWGQGTSVTVSS
VL: EIVMTQSPATLSVSPGERATLSCRASQSVRSNLAWYQQKPGQAPRLLIYGASSRATGIPARFSGTGSGTEFTLTISSLQSDDFAVYYCQQYNKWPRTFGQGTKVEIK
modifications: mouse IgG2a Fc
With B1 the “Binding Ratio of Geom. Mean to Unstained Cells, HEK293 Parental” value (HEK293 parental cells) was 6, the “% Activation at 100 nM mAb (at 10 uM Forskolin)” value (hAPLNR [2]; Table 6A) was “No Activation” and the “% Activation at 500 nM mAb (at […] Forskolin)” value (hAPLNR [2]; Table 6B) was “did not demonstrate any measurable activation; also recorded: No Activation”. The “Retinal blood vessel outgrowth (mm^2), MEAN” value ([3]; 50 mg/kg s.c. on postnatal day 2, read at postnatal day 5) was 2.84 mm^2, the “Retinal blood vessel outgrowth (mm^2), individual eye” value ([3]; 50 mg/kg s.c. on postnatal day 2, read at postnatal day 5, single eyes (OD/OS)) was 2.49 mm^2 and 3.04 mm^2 and 3.57 mm^2 and 3.32 mm^2 and 2.23 mm^2 and 2.36 mm^2 and the “mean reduction in retinal blood vessel outgrowth compared to control (hFc)” value ([3]; single s.c. injection 50 mg/kg, postnatal day 5) was “approximately 30%”.

From patent publication US20150252107A1, “APLNR Modulators and Uses Thereof” (Regeneron Pharmaceuticals, Inc., priority 2013, published 2015)
